Measured values reported in patent US20240270861A1.
Values belong to the substance of their own block, whether it stands above or below them.

Experiments:
[1] = target: human BAFF-R (B cell-activating factor receptor) expressed on cells (human) (UniProt Q96RJ3); experiment: cell-based or functional assay
[2] = target: human BAFF-R (B cell-activating factor receptor) expressed on cells (human) (UniProt Q96RJ3); experiment: BAFF-biotin blocking, flow cytometry, hBAFF-R CHO cells; competitor BAFF-biotin
[3] = target: poly-specificity reagent (PSR): detergent solubilized CHO cell membrane proteins; experiment: flow cytometry PSR assay: test article captured on protein A beads, biotinylated PSR detected with streptavidin-PE, anti-human Fc for expression; control panel without PSR (FIG. 71D) prints Q2 0.019
[4] = target: poly-specificity reagent (PSR): detergent solubilized CHO cell membrane proteins; experiment: flow cytometry PSR assay: test article on Protein A coated beads, biotinylated PSR, read-out with SA-PE
[5] = target: poly-specificity reagent (PSR): detergent solubilized CHO cell membrane proteins; experiment: PSR assay: molecule on protein A beads, biotinylated PSR, SA-PE read out by flow cytometry; + PSR panel
[6] = target: poly-specificity reagent (PSR): detergent solubilized CHO cell membrane proteins; experiment: flow cytometry PSR assay: test article captured on protein A beads, biotinylated PSR detected with streptavidin-PE, anti-human Fc for expression; control panel without PSR (FIG. 71C) prints Q2 0.020

Substance: F3′ isotype control (F3′-palivizumab) (bispecific antibody)
KHYG-1-CD16a cytotoxicity on BJAB cells, Max killing (%) [1]: 48%

Minimum (MFI) [2]: 68000 MFI
Substance: Human IgG1k (antibody)

events in quadrant Q2 (Expression-FITC positive, Binding-PE positive), + PSR [3]: 79.6%
Substance: Ixekizumab (PSR positive control) (antibody)

percent of events in Q2 (Expression-FITC positive, Binding-PE positive), + PSR [4]: 79.6%
Substance: Ixekizumab (antibody)

% of events in quadrant Q2 (PSR binding+) [5]: 27.1%
Substance: Ixekuzumab (antibody)

percent of events in Q2 (Expression-FITC positive, Binding-PE positive), + PSR [4]: 56.2%
Substance: Rituximab (antibody)

percent of events in Q2 (Expression-FITC positive, Binding-PE positive), + PSR [4]: 0.087% | events in quadrant Q2 (Expression-FITC positive, Binding-PE positive), + PSR [6]: 0.067%
Substance: trastuzumab (antibody)
